Columns and labels:
[1] = biological target: T1, human fibrinogen (control antigen) (Homo sapiens, UniProt P02671;P02675;P02679-2, biotin | biotin | biotin); assay: flow cytometry on cells; conditions: one partner purified
T1 construct: also called human fribrinogen

[2] = biological target: monomeric SARS-CoV-2 RBD with Flag peptide and 8xHis-tag (RBD-FH) (SARS-CoV-2, WA1 (Wuhan-like), UniProt P0DTC2); assay: SPR; conditions: both partners purified
[3] = biological target: monomeric SARS-CoV-2 RBD (S residues 332-534) with Flag peptide and 8xHis-tag (SARS-CoV-2, WA1 (Wuhan-like), UniProt P0DTC2, biotin (only in the flow cytometry on bacteria)); assay: SPR; conditions: both partners purified

T1 sequence (P02671 36-866, chain 1 of 3): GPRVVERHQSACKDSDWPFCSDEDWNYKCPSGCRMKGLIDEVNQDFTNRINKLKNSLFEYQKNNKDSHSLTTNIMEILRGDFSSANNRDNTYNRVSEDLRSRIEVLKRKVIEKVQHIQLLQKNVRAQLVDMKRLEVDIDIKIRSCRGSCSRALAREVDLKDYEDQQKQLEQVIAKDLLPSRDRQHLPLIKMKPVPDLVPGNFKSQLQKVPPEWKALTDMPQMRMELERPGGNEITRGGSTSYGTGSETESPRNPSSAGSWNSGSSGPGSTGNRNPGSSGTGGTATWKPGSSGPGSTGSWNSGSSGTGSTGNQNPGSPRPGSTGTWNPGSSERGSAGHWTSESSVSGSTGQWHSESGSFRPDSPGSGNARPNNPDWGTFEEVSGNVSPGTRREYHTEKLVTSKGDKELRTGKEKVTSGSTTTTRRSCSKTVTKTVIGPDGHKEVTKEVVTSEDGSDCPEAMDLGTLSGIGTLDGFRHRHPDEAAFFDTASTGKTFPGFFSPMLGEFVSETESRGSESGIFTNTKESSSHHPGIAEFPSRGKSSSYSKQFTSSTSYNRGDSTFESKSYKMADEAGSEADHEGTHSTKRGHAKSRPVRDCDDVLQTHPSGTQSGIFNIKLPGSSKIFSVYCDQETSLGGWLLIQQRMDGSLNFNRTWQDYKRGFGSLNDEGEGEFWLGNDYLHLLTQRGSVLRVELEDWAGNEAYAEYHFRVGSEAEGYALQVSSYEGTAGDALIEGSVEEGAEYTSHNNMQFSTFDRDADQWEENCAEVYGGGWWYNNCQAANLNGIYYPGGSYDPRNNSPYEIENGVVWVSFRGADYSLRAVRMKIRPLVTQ
T1 sequence (P02675 45-491, chain 2 of 3): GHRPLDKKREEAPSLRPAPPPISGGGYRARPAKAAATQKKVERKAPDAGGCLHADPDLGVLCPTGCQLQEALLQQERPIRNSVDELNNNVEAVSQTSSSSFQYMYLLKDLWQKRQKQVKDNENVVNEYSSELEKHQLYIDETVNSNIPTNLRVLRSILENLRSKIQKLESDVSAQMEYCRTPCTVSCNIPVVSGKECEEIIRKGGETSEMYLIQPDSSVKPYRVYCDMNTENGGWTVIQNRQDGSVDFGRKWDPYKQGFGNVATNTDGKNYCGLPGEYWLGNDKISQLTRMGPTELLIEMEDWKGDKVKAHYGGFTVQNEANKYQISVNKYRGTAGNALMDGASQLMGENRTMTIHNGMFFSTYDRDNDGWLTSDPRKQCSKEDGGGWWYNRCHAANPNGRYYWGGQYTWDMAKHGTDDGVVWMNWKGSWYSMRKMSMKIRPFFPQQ
T1 sequence (P02679 27-453, chain 3 of 3): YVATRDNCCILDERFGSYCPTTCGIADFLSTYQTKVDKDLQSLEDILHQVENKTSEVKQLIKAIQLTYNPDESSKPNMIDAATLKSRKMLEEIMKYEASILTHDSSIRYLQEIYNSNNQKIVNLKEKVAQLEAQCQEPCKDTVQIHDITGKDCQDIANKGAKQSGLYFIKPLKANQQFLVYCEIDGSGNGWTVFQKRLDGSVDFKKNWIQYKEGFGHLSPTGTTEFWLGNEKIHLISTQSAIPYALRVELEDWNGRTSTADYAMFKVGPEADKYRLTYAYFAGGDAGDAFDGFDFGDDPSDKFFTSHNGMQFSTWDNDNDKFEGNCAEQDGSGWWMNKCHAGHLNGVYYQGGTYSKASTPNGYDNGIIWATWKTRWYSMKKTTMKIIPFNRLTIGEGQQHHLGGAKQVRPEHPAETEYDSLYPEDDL

B1: Nb 2.1 displayed on E. coli as intimin-Nb-myc tag fusion (VHH)
VHH: QVQLVESGGGSVQAGGSLRLSCAAFGATISSAHMGWFRQAPGKEREGVAFRYTDGSSTYYTTSVRGRFTISQDNAKNTVYLQMNSLKPEDTAMYYCASNPSWGRLVGGQYNNWGQGTQITVSS
B1: no binding (tested: 100 nM) [1].

B2: 1.10 Nb (VHH)
VHH: QVQLVESGGGSVQAGGSLRLSCAASGYTYSTCRKGWYRQAPGKERELVASITADGATYYLDSVKGRLTISQDNAKNTVYLQMNSLKPEDTAVYYCAASVKDFTCTFNSWGQGTQVTVSS
With B2 the Kd [2] was 3.96 nM, the koff [2] was 0.00137 s⁻¹ and the kon [2] was 345000 M⁻¹ s⁻¹.

B3: Nb 1.10 displayed on E. coli as intimin-Nb-myc tag fusion (VHH)
VHH: B2 VHH
B3: no binding (tested: 100 nM) [1].

B4: Nb 2.15 displayed on E. coli as intimin-Nb-myc tag fusion (VHH)
VHH: QVQLVESGGGSVQAGGSLKLSCAASGYASWARKCIGWFRQAPGQEREGVAAIFDFDGSTYYSDSVKGRFTISGDNAKNTVSLQMNSLLPKDTAVYYCTVAFGTCDNWYRGRGDYWGQGTQVTVSS
B4: no binding (tested: 100 nM) [1].

B5: 1.26 Nb (VHH)
VHH: QVQLVESGGGLVQAGGSLRLSCAATGYTWSSVCMGWFRQAPGKEREGVAGIPSGRNRPYYADSVKGRFTISQDNAKNAVFLLMNSLKPEDTAIYYCAPCSAPHDPEYNYWGQGTQVTVSS
B5 was tested, and the Kd [2] was 0.26 nM, the koff [2] was 0.000624 s⁻¹ and the kon [2] was 2.44e+06 M⁻¹ s⁻¹.

B6: Nb 1.26, monomeric nanobody (VHH)
VHH: B5 VHH
B6 showed a Kd [3] of about 0.3 nM.

B7: Nb 1.26 displayed on E. coli as intimin-Nb-myc tag fusion (VHH)
VHH: B5 VHH
B7: no binding (tested: 100 nM) [1].

B8: 1.29 Nb (VHH)
VHH: QVQLVESGGGSVQAGGSLRLSCAASGYTINTDAVAWFRQAPGKGDERVAVIYTGSGNTNYADSVKGRFTISQDNAKNTVYLQMNSLKPEDTALYYCASGYYGASGYDFNNWGQGTQVTVSS
B8 showed a Kd [2] of 12.9 nM, a koff [2] of 0.00614 s⁻¹ and a kon [2] of 476000 M⁻¹ s⁻¹.

B9: Nb 1.29 displayed on E. coli as intimin-Nb-myc tag fusion (VHH)
VHH: B8 VHH
B9: no binding (tested: 100 nM) [1].

B10: Nb 1.29, monomeric nanobody (VHH)
VHH: B8 VHH
With B10 the Kd [3] was 13 nM.

B11: Nb 1.28 displayed on E. coli as intimin-Nb-myc tag fusion (VHH)
VHH: QVQLVESGGGSVQAGGSLRLSCAASGLTNIRCHMAWYRQAPGKGRELVSRITTNGVTDYADSVKERFTISRHNAENTVYLQMNSLKPEDTAVYYCAACGFSTTTYWGQGTQVTVSS
B11: no binding (tested: 100 nM) [1].

B12: 2.20 Nb (VHH)
VHH: QVQLVESGGGSVQAGGSLRLSCAASGYTYNNYYMGWFRQAPGKEREGVAAINSDGLDTYVADSVKGRFTISRDNAKDTVHLQMNSLKPEDTAIYSCATGRTVYYSGYDFRLSVDDYWGQGTQVTVSS
Binder B12 has a Kd [2] of 0.77 nM, a koff [2] of 0.00101 s⁻¹ and a kon [2] of 1.3e+06 M⁻¹ s⁻¹.

B13: Nb 2.20 displayed on E. coli as intimin-Nb-myc tag fusion (VHH)
VHH: B12 VHH
B13: no binding (tested: 100 nM) [1].

B14: Nb 2.11 displayed on E. coli as intimin-Nb-myc tag fusion (VHH)
VHH: QVQLVESGGGSVQAGGSLRLSCAASGDASNRKCVSWFRRAPGKEREGVALIFPVGSSTAYADSVKGRFTISQDSAKDTVYLQMNNLKPEDSGTYYCAAVSWGGRCNLETQTVTFWGQGTQVTVSS
B14: no binding (tested: 100 nM) [1].

B15: Nb 1.16 displayed on E. coli as intimin-Nb-myc tag fusion (VHH)
VHH: QVQLVESGGGSVQAGGSLRLSCAASGNTSKRKCVGWFRRAPGKEREGVTLIYTVGGSTVYADSVKGRFTISQDNAKDTVYLQMNSLKPEDSAMYYCAAESWGRQCNLETHRFTFWGQGTQVTVSS
B15: no binding (tested: 100 nM) [1].
